# Data taken from the nanobody polyreactivity screen of Harvey et al. (2022).
# Assay: yeast display, Sf9 membrane polyspecificity reagent, FACS + sequencing; frameworks hold sequencing errors
# Method in brief: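 Genes from sorted yeast were amplified by colony PCR, read by MiSeq 2 × 250 sequencing and filtered on CDR length. These cells carried a synthetic nanobody library in Saccharomyces cerevisiae BJ5465 and were sorted by FACS into low and high (top ~1%) gates on anti-HA and streptavidin fluorescence. Polyreactivity is labelled according to the gate of origin.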
row,Sequence,polyreactivity (PSR sort gate)
1,QVQLGESGGGLVQAGGSLRLSCAASGSTFPFNAMGWYRQAPGKERELVAAITLRGGRTYYADSVKGRFTISRDNAKNTVYLQMNSMKPEDTAVYYCAARHNPYRYYHWGQGTQVTVSS,high polyreactivity
2,QVQLGESGGGLVQAGGSLRLSCAGTGIIFARYVMGWEREAPGQDRELVAAIRRSGHSTYADSVKGRFTISRYNATNTLYLHMNSLKPEETAVYYCNAKGWISGRYSPYYRFDYWGQGTQVTVSS,high polyreactivity
3,QVQLGESGGGLVQAGGSLRLSCAPSGSIFGYYSMGWYRQAPGKERELVATITLSDDSTYYAVSVKGRFTISRDNAKITVYLQMNSLKPEDTAVYYCAAVRITRYQWDRSVGSGDYWGQGTQVTVSS,high polyreactivity
4,QVQLGESGGGLVQAGGSLRLSFAASGRISKRNDRGWSRQAPGKERELVAGITSTGSTSYAHSVKGRFTISRDNAKKTVYLQMNSLKPEDTAVYYCAARGQATYNWGQGTQVTVSS,high polyreactivity
5,QVQLGESGGGLVQAGGSVRLSCAASGRTFDFYALGWYRQAPGKERELVAAISSRGGSTYYADSVKGRFTISRDNAKNTVYLQMNSLKPEDTAVYYGAKDLGYRGRYNYWGQGTQVTVSS,low polyreactivity
6,QVQLGESVGGLVQAGGSLRLSCAASGFTSRKNAMGWYRQAPGKERELVAAITQSSGRTYYADSVKGRFTISRVNAKNTVYLQMNRLKPEDTAVYYCAARRGGEDDYWGQGTQVTVSS,low polyreactivity
7,QVQLHESGGGLVLAGGSLRLSCSASGNISVYGSMGLYRQAPGKEREFVATIDPGTNTNYADSVKDRFSISRDNAKHTVYLQMNSLKPEDTAVYYCAVEAGSDWPYRYWGHGTQVTVSS,low polyreactivity
8,QVQLHESGGGLVQAGGSLRLGCAPSGNISHAAYMGWYRQAPGKEREFVAAIAAGSNPNYADSVKGRFTISRDNAKNTVYLQMNSLKPEDTAVFYCAVASYARVQYEYWGQGTQVTVNS,low polyreactivity
9,QVQLHESGGGLVQAGGSLRLSCAASGTISVTYNMAWYRQAPGKERECVAGNSTGATTNYADSVKGRFTIRRDNAKNTVYLQMNSLKPEDTAVYYCAAHIYRQDHFYYWGQGTQVTVSS,low polyreactivity
10,QVQLHESGGGLVQAGGSLRLSCAASGTISYAGPRGWYRQAPGKERECVAGIGVGSNTNYADSVKGRYTIIRDNAKNTVYLQMNILKPEVTAVYYCAVGGYAPLGRPYWGQGTQVTVSS,low polyreactivity
11,QVQLHESGGGLVQEGGSQRLSCAASGNIFYTYAMRWYRHAPGKEREFDATINHGTSINYADSVKGRFTISRDNAKNTVYLQMNSLKPEDTAVYYCAADLSWTDNLFYWGQGTQVTVSS,low polyreactivity
12,QVQLHQSGGGLVQAGGTLRLSCAPSGNISVTYNMGWYRQAPGKEREFVAGNSTGATTNYADSVTGRFTISRDNAKNSVYLQMNSLKPEDTAVYYCAAHIYRQDHFYYWGQGTQVTVSS,low polyreactivity
13,QVQLIESGGGLVQAGGSLRLSCAASGRTFYVNAMGWYRQAPGKERELVAAIRSGGSTSYADSVKGRFTISRDNAKNTVYLQMNSLKPEDTAVYYCAAKSGLDLYYGLGGYWGQGTQVTVSS,high polyreactivity
14,QVQLIESGGGLVQAGGSLRLSCAASGSIFAANAMGWYRQAPGKEREFVASISYTGASTYADSVKGRFTISRDNAKNTVYLQMKSLKPEDTAVYYCAKDGYWTGLDPYYYWGQGTQVTVSS,low polyreactivity
15,QVQLIESGGGLVQAGGSLRLSCAASGSIFQYTMGWYRQAPGKERELVAAITRSGSSTYYADSVKGRFTISRDNAKNTVYLQMNSLKPEDTAVYYCAHTIRRVLGYGSWGQGTQVTVSS,high polyreactivity
16,QVQLKESCGGLVQAGGSLRLSCAASGTITYAPHKGWYRQAPGKERELVAGITIGGTTYYADSVKGRFTISRDNAKNTVYLQMNSLSPGDTAVYYCAAHSEQYTPFYYWGQGTQVTVSS,low polyreactivity
17,QVQLLDSGGGLVQAGGSLRLSCAASGSIFYLNAMGWYRQAPVKEREFVAAITLRGGSSYYADSVKGRFTISRDYANNTFYLQMKSLKPEDTAFYYCNAGVALTYVHDGDYWGQGTQVTVSS,low polyreactivity
18,QVQLLESCGGLVQAGGSLRLSCAASGRIFSYYVMGWYRQAPGKERELVAAITSGGSTNYADSVKGRFTISRDNAKISVYLQLTSLKPVDTAVYYFNRAYTYINRLYGYWGQGTEVTVSS,high polyreactivity
19,QVQLLESGGGIVQAGGSLRLSCAASGRTFYVYGMGWYRQAPGKERELVAAISKRGDNTYYADAVKGRFTISRDNAKNTVYLQMNSLKPEDTAVYYCNVKLYGGRSDYWGQGTQVTVSS,high polyreactivity
20,QVQLLESGGGLDQAGGSLRLSTAASGSTFGVYAMGWYRQARGKEREMVAAISRRGGSTYYADSVKGRFTISRDNAKNTVYLQMNSLKPEDTAVYYCAARGGQMEYWGQGTQVTVSS,high polyreactivity
21,QVQLLESGGGLFQTGGSLRLSCAASGRTFWNYAKGWYRQAPGKERELVAVIRFSDGSTYYADSVKGRFTISRDNAKNTVYLQMNSLKPQDTAVYYSAAKGPRRWGSGFDYWGQGTQVTVSS,low polyreactivity
22,QVQLLESGGGLLQAGGSLRLSCAASGRIFKFNAMGWYRQAPGKERELVAAISKRGGSTYYADSVKGRFTISRDNAKNTVYLQMNSLNPEDTAVYYCAAPIYNGYASWQVYYWGQGTQVTVSS,high polyreactivity

row,Sequence,polyreactivity (PSR sort gate)
1,QVQLLESGGGLVKAGGSLRLTCADSGRTLYRYAMGWYRQAPGKERELVAAINQSGGRTYYADSVKGRFTISRDNAKNTVYLQMNSLKPDDTAVYYCNTASSRAFLTHGRYGRSDYWGQGTQVTVSS,high polyreactivity
2,QVQLLESGGGLVPARGSLRLSCAASGRIFPQYVMGWYRQAPGKEREFVATISYSGGRTYYADSVKGRFTISRDNAMNTVYVQMNSLKPEDTAVYDCAAGTSAGWADDYWGQGTQVTVSS,high polyreactivity
3,QVQLLESGGGLVQAGGILRLSCAASGRTLHYSAMGWYRQAPGIERELVAAISARGGRTYYADSVKGRFTISRDNAKNTVYLLMQTLKPEDTAVYYCAAAGYITRYDRYDYWGQGTHVTVSS,high polyreactivity
4,QVQLLESGGGLVQAGGSLRLSCAASASTFWFYAMGWYIQAPGKERELVAAISSTGSTNYADSVKGRFTISRDNAKNTVYLQMNSLKPEDTAVYYCATQEGPHKLDPRGYYWGQGTQVTVSS,low polyreactivity
5,QVQLLESGGGLVQAGGSLRLSCAASGGTFRVYAMGWYRQAPVKEWELVAAISSGGSTNYADSVKGRFTISRDNAKNTVYLQMNSLIPEDTAVSYCNAKYRYRFARSPIYFYWGQGTQVTVSS,low polyreactivity
6,QVQLLESGGGLVQAGGSLRLSCAASGITFPYYAMGWYRQAPGKERELVAAISSSGGSTYYADSVKGRFTISRDIAKNTVYLQMNSLKPEDTAVYYCAAQRYINYDYWGQGTQVTVSS,high polyreactivity
7,QVQLLESGGGLVQAGGSLRLSCAASGLIFAGNAMGWYRQAPGKERELVAAISSSGGRTYYADSVKGRFTFSRDNAKNTVYLQMYSLKPEDTAVYYCAAVRTGYYRQYDYWGQGTQVTVSS,high polyreactivity
8,QVQLLESGGGLVQAGGSLRLSCAASGLIFKYYAMGWYRQAPGKERELVAVITSSGGSTYYADSVKGRFTISRDNANNTVYLQMNSLKPEDTAVYYCAARRVRWPYDYWGQGTQVTVSS,high polyreactivity
9,QVQLLESGGGLVQAGGSLRLSCAASGLIYVNNPMGWYRKATGKETELVATISSGVSTNYADSVKGRFTISRENAKNSVYLHMNSLKPEDTAVYYCNKGQTVSRGYRLYERYDYWGQGTQVTVSS,low polyreactivity
10,QVQLLESGGGLVQAGGSLRLSCAASGLTFGWYAMGWYRQAPGKERELVAAITWNSGSTYYADSVKGRFTISRDNAKNTVYLQMNSLKPVDTAVYYCAAGYQDSQEYDYWGQGTQVTVSS,low polyreactivity
11,QVQLLESGGGLVQAGGSLRLSCAASGRIFLRYVMGWYRQAPGKERELVAAIRSNGGSTYADSVKGRFTSSRDNAKNTVYLHMNSLKPEDTAVYYCAARYVITKGSFVVGYGYWGQGTQVTVSS,high polyreactivity
12,QVQLLESGGGLVQAGGSLRLSCAASGRIFNYNVMGWYRQAPGKERELVAAISRRGTSTFYADSVKGRFTISRDNAKNTVYLQMNSLIPVDTAVYYCAADFYSNHYDYWGQGTQVTVSS,high polyreactivity
13,QVQLLESGGGLVQAGGSLRLSCAASGRIFVSNAMGWYRQAPGKERELVAAISKSGGRTYYADSVKGRFTISRDNAKNTVYLQMNSLKPEDTAVYYCAADIFTQGFDYWGQGTQVTVSS,high polyreactivity
14,QVQLLESGGGLVQAGGSLRLSCAASGRIFYRYAMGWYRKAPGKERELVPAISRTGSRTYYADSVKGRFTISRDNAKNTVYLQMNSLKPEDTAVYYCNKVSAPAEFRSRGYWGQGTQVTVSS,high polyreactivity
15,QVQLLESGGGLVQAGGSLRLSCAASGRTFDWNMGWYRQAPGKERELVAGITFSVDSTYYADSVKGRFTISRDNAKNTVYLQMNSLKPEDTAYWGQGTQVSVSS,low polyreactivity
16,QVQLLESGGGLVQAGGSLRLSCAASGRTFRSYVMVWYRQAPGKERELVAAISRSGGSTYYADSVKGRFTISRDNAKNTVYLQMNSLKPEDTAVYYCATKRVLTGYDSWGQGTQVTVSS,high polyreactivity
17,QVQLLESGGGLVQAGGSLRLSCAASGSIFAYYAMGWYRQAPGKERELVAAISGTGGSTNYADSVKGRFTISRDNAKNTVYLQMNSLKPEDTAVYYCAKDYSFQWRNEFNLAGEYVYWGQGTQVTVSS,low polyreactivity
18,QVQLLESGGGLVQAGGSLRLSCAASGSIFRGNAMGWYRQAPGKERELVAAISQRGTSTYYADSVKGRFTISRDYAKNTVYLQMNSLKPEDTAVYYCNALYWQIGDDYWGQGTQVTVSS,high polyreactivity
19,QVQLLESGGGLVQAGGSLRLSCAASGSTFDDYAMGWYRQAPGKEREFVAAIDWSGGSTYYADSVKGRFTISRDNAKYSVYLQMKSLKPEVTAVYYCNADPDVSFDYWGQGTQVTVSS,low polyreactivity
20,QVQLLESGGGLVQAGGSLRLSCAASGSTFEANTMGWYSQAPGKDRELVASISSSGGSTNYADSVKGRFTISRDNAKNTVYLQMNRLKQEDTAVYYCAVRCTYARWNWRTADSSRDYWGQGTQVTVSS,low polyreactivity
21,QVQLLESGGGLVQAGGSLRLSCAASGSTFPWYTMGWYRQAPGKERELVAPISNGGSTNYADSVKGRFTISRDNAKNTVYLQMNSLIPEDTAVYYCNARIPPYRWYQVSRGHGYWGQGTQVTVSS,high polyreactivity
